Measured values as given in PMC6396125 (ACS Omega, 2019).
Values joined by “and” are separate entries in the source; they are usually repeats but may differ in a detail not shown here. Equal entries are not always repeated. Where two headings read alike, the source gives them in different places. Ends that are not written are not given here.

Key:
L. lactis OppA = molecular target: T1, L. lactis OppA (Lactococcus lactis subsp. lactis, UniProt Q07741); assay: Fluorescence anisotropy competition binding assay
T1 sequence (Q07741 35-600 limits assumed): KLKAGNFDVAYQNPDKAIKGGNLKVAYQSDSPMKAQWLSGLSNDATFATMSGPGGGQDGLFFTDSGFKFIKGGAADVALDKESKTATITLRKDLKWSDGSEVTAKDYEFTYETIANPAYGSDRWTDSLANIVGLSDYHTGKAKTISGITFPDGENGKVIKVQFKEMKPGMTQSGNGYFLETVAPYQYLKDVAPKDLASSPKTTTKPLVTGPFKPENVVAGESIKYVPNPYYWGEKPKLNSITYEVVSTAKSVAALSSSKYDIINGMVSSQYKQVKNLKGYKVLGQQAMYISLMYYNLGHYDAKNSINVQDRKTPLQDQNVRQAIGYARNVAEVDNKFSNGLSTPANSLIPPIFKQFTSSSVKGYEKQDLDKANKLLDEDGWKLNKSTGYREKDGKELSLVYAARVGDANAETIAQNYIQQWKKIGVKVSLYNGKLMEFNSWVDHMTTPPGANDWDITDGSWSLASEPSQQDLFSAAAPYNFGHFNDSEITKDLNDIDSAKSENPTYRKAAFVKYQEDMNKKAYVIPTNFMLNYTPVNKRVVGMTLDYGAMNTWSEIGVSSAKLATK

[1] = molecular target: bradykinin labeled with sulforhodamine 101 on the C-terminus; assay: fluorescence polarisation
[2] = molecular target: Lactococcus lactis oligopeptide-binding protein A (OppA) (Lactococcus lactis subspecies cremoris MG1363); assay: fluorescence polarisation
[3] = molecular target: Lactococcus lactis oligopeptide-binding protein A (OppA) (Lactococcus lactis subspecies cremoris MG1363); assay: fluorescence polarisation; remark: listed apart in the source
[4] = molecular target: Lactococcus lactis oligopeptide-binding protein A (OppA) (Lactococcus lactis subspecies cremoris MG1363); assay: fluorescence polarisation; remark: listed apart in the source
[5] = molecular target: Lactococcus lactis oligopeptide-binding protein A (OppA) (Lactococcus lactis subspecies cremoris MG1363); assay: fluorescence polarisation; remark: listed apart in the source

| Compound | Kd (L. lactis OppA) [µM] | IC50 [5] [µM] | Kd [5] [µM] | further results |
| --- | --- | --- | --- | --- |
| CC[C@H](C)[C@H](NC(=O)[C@H](CCCNC(=N)N)NC(=O)[C@H](CCCNC(=N)N)NC(=O)[C@H](CC(C)C)NC(=O)[C@H](Cc1ccccc1)NC(=O)CNC(=O)CNC(=O)[C@@H](N)Cc1ccc(O)cc1)C(=O)N[C@@H](CCCNC(=N)N)C(=O)N1CCC[C@H]1C(=O)N[C@@H](CCCCN)C(=O)N[C@@H](CC(C)C)C(=O)N[C@@H](CCCCN)C(=O)N[C@@H](Cc1c[nH]c2ccccc12)C(=O)N[C@@H](CC(=O)O)C(=O)N[C@@H](CC(N)=O)C(=O)N[C@@H](CCC(N)=O)C(=O)O [dynorphin-A (1–17)] | 3.3 ± 0.6 | – | – | – |
| Lactococcus lactis oligopeptide-binding protein A (OppA) (natural protein) | – | – | – | Kd [1]: 22.9 µM and 15.4 µM |
| SFRNGVGSGVKKTSFRRAKQ [neuropeptide S] | – | – | – | IC50 from competition binding assay (L. lactis OppA; pH 6, 30 °C, vs prebound bradykinin-SR101 (1 μM) + OppA (15 μM) mixture, at least 1 h, mean ± SD, n = 3): no fit |
| SLSQSKVLPVPQ [casein-derived peptide] | 0.2 ± 0.01 | – | – | – |
| YGGFLRRIR [dynorphin-A (1–9)] | 13.3 ± 0.7 | – | – | – |
| bradykinin (peptide) | – | 5.2 | 0.13 | Kd [2]: 0.2 µM and 0.36 µM and 0.7 µM; IC50 [3]: 5.1 µM and 5.3 µM and 5.6 µM; Kd [3]: < 0.1 µM and 0.31 µM; Kd [4]: 0.4 µM |
| dynorphin-A (1–9) (peptide) | – | 34.2 | 13.3 | – |
| dynorphin-A (1–17) (peptide) | – | 11 | 3.3 | – |
| leu-enkephalin (peptide) | – | 2000 | – | – |
| neuropeptide S | – | – | 1800 | – |
